Key:
S1 (SARS-CoV-2) = S1 (SARS-CoV-2) (UniProt P0DTC2); experiment: SPR
Yu gp120 = experiment: SPR

| Substance | Kd (S1 (SARS-CoV-2)) [nM] | Kd (Yu gp120) [nM] |
| --- | --- | --- |
| ACE2 | 2.4 | – |
| P51G-CVN-HIS(OK) | – | 22.8 |

Reference: patent publication US20230355708A1
